Measured values published in paper PMC10499821 (2023).
Where no end group is shown, it is not given here. The star is where a group is joined. FITC = O=C1OC2(c3ccc(O)cc3Oc3cc(O)ccc32)c2ccc(NC(=S)*)cc21

B12: Nsp9 (natural protein)
chain: NNELSPVALRQMSCAAGTTQTACTDDNALAYYNTTKGGRFVLALLSDLQDLKWARFPKSDGTGTIYTELEPPCRFVTDTPKGPKVKYLYFIKGLNNLNRGMVLGSLAATVRLQ

How the values were obtained:
Nsp9 [1] = molecular target: Nsp9
Nsp3 SUD-M = Nsp3 SUD-M (SARS-CoV-2, UniProt P0DTD1 819-2763); assay: FP
Nsp3 Ubl1 = Nsp3 Ubl1 (SARS-CoV-2, UniProt P0DTD1 819-2763); assay: FP
Nsp3 ADRP = Nsp3 ADRP (SARS-CoV-2, UniProt P0DTD1 819-2763); assay: FP
RIF1 1780-1795 = assay: FP
MVB12A 166-180 = assay: FP
NEK9 737-751 = assay: FP
MCM9 796-811 = assay: FP
Nsp9 [2] = molecular target: B12; assay: FP

B1: RIF1 1780-1795 (peptide)
chain: NPYSEGQFLDEHHSVN
In the case of B1, the Kd (Nsp9 [1]) is reported as 88 µM.

B2: MCM9 796-811 (peptide)
chain: DIGLLPSPGETGVPWR
B2 was tested, and the Kd (Nsp9 [1]) was ~3200 µM.

B3: AXIN1 1-15 (peptide)
chain: MNIQEQGFPLDLGASY
B3 was tested, and the Kd (Nsp9 [1]) was 49 µM.

B4: FITC-DNAH2 92-107 (peptide)
chain: {FITC}-AVWTQEHDAILEHFAQ
B4 showed a Kd (Nsp8) of ~190 µM.

B5: NOTCH4 1605-1620 (peptide)
chain: FQGAWLGCPEPWEPLL
B5 was tested, and the Kd (Nsp9 [1]) was 125 µM.

B6: PRDM14_(197–213) (peptide)
peptide: FTEEDLHFVLYGVTPS
Binder B6 has a Kd (Nsp3 SUD-M) of 37 µM.

B7: MVB12A 166-180 (peptide)
chain: MQGLSLDAASQPSKGY
With B7 the Kd (Nsp9 [1]) was 450 µM.

B8: N_(216–231) peptide (peptide)
peptide: DAALALLLLDRLNQLE
B8 was tested, and the Kd (Nsp3 Ubl1) was 64 µM.

B9: MBOAT1_(16–31) (peptide)
peptide: GSTYLHPLSELLGIPL
B9 gave a Kd (Nsp3 ADRP) of 104 µM.

B10: NCOA2_(1074–1089) (peptide)
peptide: SDEGALLDQLYLALRN
In the case of B10, the Kd (Nsp3 Ubl1) is reported as 26 µM.

B11: FITC-DYRK1B 394-409 (peptide)
chain: {FITC}-PGHSPADYLRFQDLVL
With B11 the Kd (Nsp16) was 3.2 µM.

B12 was tested, and the Kd (RIF1 1780-1795) was 88 µM, the Kd (MVB12A 166-180) was 450 µM and the Kd (NEK9 737-751) was 111 µM. The Kd (MCM9 796-811) was ~3200 µM.

B13: NYNRIN_(1031–1046) (peptide)
peptide: CPSLSEEILRCLSLHD
B13 showed a Kd (Nsp3 Ubl1) of 150 µM.

B14: NKRF_(8–23) (peptide)
peptide: AEGIDIGEMPSYDLVL
For B14, the Kd (Nsp9 [2]) was 50 µM.

B15: NEK9 737-751 (peptide)
chain: SSGLSIGTVFQSSSPY
Work on B15 yielded a Kd (Nsp9 [1]) of 111 µM.

B16: AXIN1_(1–15) (peptide)
peptide: MNIQEQGFPLDLGAS
B16 showed a Kd (Nsp9 [2]) of 49 µM.

B17: LMTK3 22-36 (peptide)
chain: YPAHPDGFALGRAPLA
In the case of B17, the Kd (Nsp9 [1]) is reported as 34 µM.

B18: LMTK3_(22–36) (peptide)
peptide: PAHPDGFALGRAPLA
B18 gave a Kd (Nsp9 [2]) of 34 µM.
